Experimental data as given in PMC2138052.

Target: Rabbit muscle F-actin (rabbit) (UniProt P68135)
Test: co-sedimentation

Substance: Recombinant human cofilin (from UniProt P23528 1-166) (natural protein)
- stoichiometry N (cofilin/actin): 1.16
